Assay results as given in publication PMC10033377 (Nature structural & molecular biology, 2023).
Residue numbers refer to the chain shown, from its start. Numbers in names are those of the source.

Columns and labels:
[1] = target: the molecule itself; assay: SEC
[2] = target: the molecule itself; assay: negative stain EM

B1: PRPS1-D52H (enzyme, human)
chain: MPNIKIFSGSSHQDLSQKIADRLGLELGKVVTKKFSNQETCVEIGESVRGEHVYIVQSGCGEINDNLMELLIMINACKIASASRVTAVIPCFPYARQDKKDKSRAPISAKLVANMLSVAGADHIITMDLHASQIQGFFDIPVDNLYAEPAVLKWIRENISEWRNCTIVSPDAGGAKRVTSIADRLNVDFALIHKERKKANEVDRMVLVGDVKDRVAILVDDMADTCGTICHAADKLLSAGATRVYAILTHGIFSGPAISRINNACFEAVVVTNTIPQEDKMKHCSKIQVIDISMILAEAIRRTHNGESVSYLFSHVPL
B1: binds [1].

B2: PRPS1-V309F (enzyme, human)
chain: B1 chain with H52D, V309F
B2: binds [2].

B3: PRPS1-S16P (enzyme, human)
chain: B1 chain with S16P, H52D
B3: binds [2].

B4: PRPS1-I290T (enzyme, human)
chain: B1 chain with H52D, I290T
B4: binds [2].
